Experimental data published in patent US20160264649A1.

How the values were obtained:
Assay in all cases: cell-based or functional assay
[1] = target: HIV-1 Env of isolate 92UG114 (subtype D) (HIV-1)
[2] = target: HIV-1 Env of isolate MGRM-D-020 (subtype D) (HIV-1)
[3] = target: HIV-1 Env of isolate MGRM-D-002 (subtype D) (HIV-1)
[4] = target: HIV-1 Env of isolate MGRM-F1-014 (subtype F) (HIV-1)
[5] = target: HIV-1 Env of isolate MGRM-D-003 (subtype D) (HIV-1)
[6] = target: HIV-1 Env of isolate MGRM-F1-023 (subtype F) (HIV-1)
[7] = target: HIV-1 Env of isolate 92UG031 (subtype A) (HIV-1)
[8] = target: HIV-1 Env of isolate MGRM-D-028 (subtype D) (HIV-1)
[9] = target: HIV-1 Env of isolate MGRM-D-005 (subtype D) (HIV-1)
[10] = target: HIV-1 Env of isolate 94 KE 105 (subtype AC) (HIV-1)
[11] = target: HIV-1 Env of isolate MGRM-D-016 (subtype D) (HIV-1)
[12] = target: HIV-1 Env of isolate MGRM-F1-020 (subtype F) (HIV-1)
[13] = target: HIV-1 Env of isolate MGRM-F1-022 (subtype F) (HIV-1)
[14] = target: HIV-1 Env of isolate MGRM-D-014 (subtype D) (HIV-1)
[15] = target: HIV-1 Env of isolate MGRM-AE-004 (subtype AE) (HIV-1)
[16] = target: HIV-1 Env of isolate 92WR009 (subtype A) (HIV-1)
[17] = target: HIV-1 Env of isolate MGRM-F1-016 (subtype F) (HIV-1)
[18] = target: HIV-1 Env of isolate MGRM-F1-012 (subtype F) (HIV-1)
[19] = target: HIV-1 Env of isolate MGRM-D-013 (subtype D) (HIV-1)
[20] = target: HIV-1 Env of isolate MGRM-D-004 (subtype D) (HIV-1)
[21] = target: HIV-1 Env of isolate MGRM-AE-005 (subtype AE) (HIV-1)
[22] = target: HIV-1 Env of isolate MGRM-D-026 (subtype D) (HIV-1)
[23] = target: HIV-1 Env of isolate 92TH021 (subtype AE) (HIV-1)
[24] = target: HIV-1 Env of isolate 92WR026 (subtype A) (HIV-1)
[25] = target: HIV-1 Env of isolate MGRM-D-022 (subtype D) (HIV-1)
[26] = target: HIV-1 Env of isolate MGRM-D-012 (subtype D) (HIV-1)
[27] = target: HIV-1 Env of isolate MGRM-D-024 (subtype D) (HIV-1)
[28] = target: HIV-1 Env of isolate MGRM-AE-003 (subtype AE) (HIV-1)
[29] = target: HIV-1 Env of isolate VLGCA1 (subtype A) (HIV-1)
[30] = target: HIV-1 Env of isolate MGRM-F1-006 (subtype F) (HIV-1)
[31] = target: HIV-1 Env of isolate 93WR029 (subtype A) (HIV-1)
[32] = target: HIV-1 Env of isolate MGRM-AE-002 (subtype AE) (HIV-1)
[33] = target: HIV-1 Env of isolate MGRM-D-011 (subtype D) (HIV-1)
[34] = target: HIV-1 Env of isolate MGRM-F1-017 (subtype F) (HIV-1)
[35] = target: HIV-1 Env of isolate MGRM-F1-010 (subtype F) (HIV-1)
[36] = target: HIV-1 Env of isolate 92WR021 (subtype A) (HIV-1)
[37] = target: HIV-1 Env of isolate MGRM-AE-001 (subtype AE) (HIV-1)
[38] = target: HIV-1 Env of isolate MGRM-AE-007 (subtype AE) (HIV-1)
[39] = target: HIV-1 Env of isolate MGRM-AE-008 (subtype AE) (HIV-1)
[40] = target: HIV-1 Env of isolate MGRM-D-019 (subtype D) (HIV-1)
[41] = target: HIV-1 Env of isolate MGRM-AE-006 (subtype AE) (HIV-1)
[42] = target: HIV-1 Env of isolate MGRM-D-021 (subtype D) (HIV-1)
[43] = target: HIV-1 Env of isolate 92UG037 (subtype A) (HIV-1)
[44] = target: HIV-1 Env of isolate MGRM-D-008 (subtype D) (HIV-1)
[45] = target: HIV-1 Env of isolate MGRM-F1-021 (subtype F) (HIV-1)
[46] = target: HIV-1 Env of isolate MGRM-F1-015 (subtype F) (HIV-1)
[47] = target: HIV-1 Env of isolate MGRM-F1-008 (subtype F) (HIV-1)
[48] = target: HIV-1 Env of isolate 93UG077 (subtype A) (HIV-1)
[49] = target: HIV-1 Env of isolate 92WR020 (subtype A) (HIV-1)
[50] = target: HIV-1 Env of isolate 94UG103 (subtype A) (HIV-1)
[51] = target: HIV-1 Env of isolate MGRM-F1-018 (subtype F) (HIV-1)
[52] = target: HIV-1 Env of isolate MGRM-F1-013 (subtype F) (HIV-1)
[53] = target: HIV-1 Env of isolate CMU02 (subtype AE) (HIV-1)
[54] = target: HIV-1 Env of isolate MGRM-D-029 (subtype D) (HIV-1)
[55] = target: HIV-1 Env of isolate MGRM-F1-004 (subtype F) (HIV-1)
[56] = target: HIV-1 Env of isolate 92WR024 (subtype A) (HIV-1)
[57] = target: HIV-1 Env of isolate MGRM-D-001 (subtype D) (HIV-1)
[58] = target: HIV-1 Env of isolate MGRM-D-018 (subtype D) (HIV-1)

Chain of PGT-142 (4995_E20) (antibody) (VH): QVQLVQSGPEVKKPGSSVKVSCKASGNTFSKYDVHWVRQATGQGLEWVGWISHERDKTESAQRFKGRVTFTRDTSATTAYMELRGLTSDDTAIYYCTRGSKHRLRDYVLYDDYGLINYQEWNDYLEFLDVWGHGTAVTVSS
Chain of PGT-142 (4995_E20) (antibody) (VL): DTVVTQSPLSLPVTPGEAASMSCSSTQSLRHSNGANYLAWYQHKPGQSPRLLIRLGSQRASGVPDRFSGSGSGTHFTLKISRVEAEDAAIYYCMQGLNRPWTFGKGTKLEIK

PGT-142 (4995_E20) (antibody)
IC50 (pseudovirus neutralization) [1]: > 50 µg/mL | IC50 (pseudovirus neutralization) [2]: > 50 µg/mL | IC50 (pseudovirus neutralization) [3]: > 50 µg/mL | IC50 (pseudovirus neutralization) [4]: 0.001 µg/mL | IC50 (pseudovirus neutralization) [5]: > 50 µg/mL | IC50 (pseudovirus neutralization) [6]: 0.602 µg/mL | IC50 (pseudovirus neutralization) [7]: 0.05 µg/mL | IC50 (pseudovirus neutralization) [8]: > 50 µg/mL | IC50 (pseudovirus neutralization) [9]: 1.15 µg/mL | IC50 (pseudovirus neutralization) [10]: 0.19 µg/mL | IC50 (pseudovirus neutralization) [11]: > 50 µg/mL | IC50 (pseudovirus neutralization) [12]: 0.824 µg/mL | IC50 (pseudovirus neutralization) [13]: 0.04 µg/mL | IC50 (pseudovirus neutralization) [14]: 0.005 µg/mL | IC50 (pseudovirus neutralization) [15]: 0.001 µg/mL | IC50 (pseudovirus neutralization) [16]: 0.006 µg/mL | IC50 (pseudovirus neutralization) [17]: > 50 µg/mL | IC50 (pseudovirus neutralization) [18]: > 50 µg/mL | IC50 (pseudovirus neutralization) [19]: 0.221 µg/mL | IC50 (pseudovirus neutralization) [20]: > 50 µg/mL | IC50 (pseudovirus neutralization) [21]: > 50 µg/mL | IC50 (pseudovirus neutralization) [22]: 12.5 µg/mL | IC50 (pseudovirus neutralization) [23]: 0.002 µg/mL | IC50 (pseudovirus neutralization) [24]: 1.78 µg/mL | IC50 (pseudovirus neutralization) [25]: > 50 µg/mL | IC50 (pseudovirus neutralization) [26]: > 50 µg/mL | IC50 (pseudovirus neutralization) [27]: > 50 µg/mL | IC50 (pseudovirus neutralization) [28]: > 50 µg/mL | IC50 (pseudovirus neutralization) [29]: 2.75 µg/mL | IC50 (pseudovirus neutralization) [30]: 12.9 µg/mL | IC50 (pseudovirus neutralization) [31]: 0.014 µg/mL | IC50 (pseudovirus neutralization) [32]: > 50 µg/mL | IC50 (pseudovirus neutralization) [33]: > 50 µg/mL | IC50 (pseudovirus neutralization) [34]: 23.5 µg/mL | IC50 (pseudovirus neutralization) [35]: > 50 µg/mL | IC50 (pseudovirus neutralization) [36]: > 50 µg/mL | IC50 (pseudovirus neutralization) [37]: > 50 µg/mL | IC50 (pseudovirus neutralization) [38]: 6.7 µg/mL | IC50 (pseudovirus neutralization) [39]: 0.08 µg/mL | IC50 (pseudovirus neutralization) [40]: 0.155 µg/mL | IC50 (pseudovirus neutralization) [41]: > 50 µg/mL | IC50 (pseudovirus neutralization) [42]: > 50 µg/mL | IC50 (pseudovirus neutralization) [43]: 0.557 µg/mL | IC50 (pseudovirus neutralization) [44]: 0.174 µg/mL | IC50 (pseudovirus neutralization) [45]: > 50 µg/mL | IC50 (pseudovirus neutralization) [46]: > 50 µg/mL | IC50 (pseudovirus neutralization) [47]: 0.124 µg/mL | IC50 (pseudovirus neutralization) [48]: > 50 µg/mL | IC50 (pseudovirus neutralization) [49]: 31.5 µg/mL | IC50 (pseudovirus neutralization) [50]: > 50 µg/mL | IC50 (pseudovirus neutralization) [51]: 0.404 µg/mL | IC50 (pseudovirus neutralization) [52]: 0.023 µg/mL | IC50 (pseudovirus neutralization) [53]: > 50 µg/mL | IC50 (pseudovirus neutralization) [54]: 0.192 µg/mL | IC50 (pseudovirus neutralization) [55]: 0.013 µg/mL | IC50 (pseudovirus neutralization) [56]: 0.069 µg/mL | IC50 (pseudovirus neutralization) [57]: > 50 µg/mL | IC50 (pseudovirus neutralization) [58]: > 50 µg/mL
